± gives the uncertainty stated by the source.

This data set can be described thus: amyloid nucleation score (Sup35N fusion, yeast selection) (log enrichment); library NNK2; higher = more nucleation; inactive = no reads after selection. In short, it runs like this:
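Output and input plasmid inserts were sequenced by Illumina after psi-negative yeast carrying Sup35N fused to peptides of 20 random codons had been induced 24 hours with 100 μM copper sulfate and grown 7 days at 30°C on medium lacking adenine and uracil. The nucleation score is the DiMSum log enrichment of output over input reads, centred on the mode score of non-aggregating sequences. Sequences with under 100 input reads were excluded.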
As to KSSNHITRFRSHSMETSRMV, the amyloid nucleation score entry was “inactive”. For KSVFYIWFSHRVSVVAVRQL the value was 5.13 ± 0.093; for KSVSVGQVRTCPYSFISPVL, 0.247 ± 1.

As to KTIPSGVVGWVSEGQRSTNR, the amyloid nucleation score stood at 7.87 ± 0.08. KTLVKESCCNLNSRSDLWGL displayed an amyloid nucleation score of -0.754 ± 0.76. KVINFGCTTFDYGYATYFGQ came in with an amyloid nucleation score of 6.66 ± 0.055. KVLFTGFFANVGFSSSVRAN yielded an amyloid nucleation score of -0.567 ± 1.1. Take KVLTCRIYSIWVLIC: the amyloid nucleation score is 0.009 ± 0.32. For KVMVRLGSNSAAKYFYVNRV the value was 3.84 ± 0.057; for KVRGPSNNVSSQKAHDRFDS, 0.277 ± 0.28. With KVSHAWM, the amyloid nucleation score was 0.704 ± 0.53.

Turning to KVTSRTTGMIVSFFMPCLEM, the amyloid nucleation score was 5.97 ± 0.072.

KWFLGCRVDHRMRVRMCLQ came in with an amyloid nucleation score of -0.292 ± 0.54. KWMFEVTVYGRWYVTHQAGL came in with an amyloid nucleation score of 4.827 ± 0.041. Turning to KWVGWMWGYEGSLWSSNLWR, the amyloid nucleation score turned out to be 0.242 ± 0.77. The substance KYCDWYL came in with an amyloid nucleation score of -0.274 ± 0.22.

For the substance KYDGAFQRGGIIQISYLCLW, the amyloid nucleation score was found to be 4.87 ± 0.071.

In the case of KYENYLCITFMGCLLGMRSE, the amyloid nucleation score entry is “inactive”. Turning to KYFIASLDQFSYISVHNEVV, the amyloid nucleation score entry was “inactive”. Turning to KYGNFVFTFLLINPF, the amyloid nucleation score entry was “inactive”.

KYMCSLMEATFLYNGSALRC registered an amyloid nucleation score of -1.6 ± 1.1. Turning to KYMINAYTAGWIGV, the amyloid nucleation score was -1.41 ± 0.34. The substance KYSIGTETVHGCLQPLCPAH yielded an amyloid nucleation score of -0.095 ± 0.46. Consider KYSTISRCAYSRIDVCGKKK, for which the amyloid nucleation score was 0.488 ± 0.33. For KYYCATSSVFYASSRQMFKS the value was -0.267 ± 0.49; for LAAKFCCQLSFGSFCDCIFR, 7.82 ± 0.084. Consider LAAWLWYTWKG, for which the amyloid nucleation score came out at 0.589 ± 0.66. LADSAYTPY showed an amyloid nucleation score of -0.727 ± 0.54. On to LAGFGMNFSFRFSVLTWGSV, for which the amyloid nucleation score was found to be 3.13 ± 0.09. For LAGLYGNFCISRCSVANQMV, the amyloid nucleation score stood at 2.08 ± 0.095. Under LAISHMLSKCVKKIDTL stands 1.56 ± 0.2.

LAKWGKLCCVLYQYPVSLGE: the amyloid nucleation score turned out to be 0.71 ± 0.28.

The substance LAQSYVSYS came in with an amyloid nucleation score of -1.45 ± 0.54.

LAQVFIIEAPFMTKFLPMLR had an amyloid nucleation score of 2.81 ± 0.097. In turn, LCDLVKASSMFANGSDHFIV yielded an amyloid nucleation score of -0.569 ± 0.61. LCDTVTYWVPLC: the amyloid nucleation score was 4.28 ± 0.094. LCHTRCDRNSSCLL: the amyloid nucleation score was -0.56 ± 0.79. Substance LCIFYNWRCV came in with an amyloid nucleation score of 6.76 ± 0.024. For LCISCNVGLGSIKVRNNAFA the value was 6.12 ± 0.042. In turn, LCKYDGCMIAYGVLHSSSAG came in with an amyloid nucleation score of 0.651 ± 0.26. LCNGKAPCFKLCIRCLVGLW yielded an amyloid nucleation score of 2.82 ± 0.13. The substance LCNMHIMRFNM returned an amyloid nucleation score of -1.07 ± 1.1. Under LCQIANNSVGLRKDQEGLR stands 0.375 ± 0.41; under LCRYARCLIVSFVRIFGCCL, -0.47 ± 1.1. LCVCRPGRRSIYLMVWVWWN showed an amyloid nucleation score of -0.513 ± 0.53. With LCVLLHVTEKLKANSTLSCV, the amyloid nucleation score was -0.317 ± 1.1. In the case of LDALVSWSLECGWYESCWSR, the amyloid nucleation score is -0.025 ± 0.32.

Turning to LDFVQCILAVIQGSRDAAGA, the amyloid nucleation score turned out to be 0.438 ± 0.64. For the substance LDICCIRGMNRHFRFYNVDV, the amyloid nucleation score is -0.402 ± 0.61.

LDIPNGNYVLMSYR came in with an amyloid nucleation score of 0.32 ± 0.44. Substance LDITVCMRFKAPAIIWAYYF yielded an amyloid nucleation score of -0.657 ± 0.48.

Take LDLDMRGKHFVFHHTVKHAI: the amyloid nucleation score is 1.79 ± 0.14. LDPCGYVVSSEGMLVIGVPI yielded an amyloid nucleation score of 0.209 ± 0.39. For LDPLRPG the value was 1.14 ± 0.39; for LDRGVVSLRLLFARAHNYSK, 2.88 ± 0.15.

In the case of LDVPARSMCFY, the amyloid nucleation score was -0.761 ± 0.61.

Take LECCG: the amyloid nucleation score was -0.838 ± 0.55. In turn, LEDGRTSLGMTQRYSIRNIC showed an amyloid nucleation score of -1.11 ± 0.55.

In the case of LEGGGGFSRAL, the amyloid nucleation score is -0.651 ± 1.1. LEQKVIIRCCPN: the amyloid nucleation score was 0.091 ± 0.18. Consider LERFEH, for which the amyloid nucleation score was found to be 2.01 ± 0.24. Take LERGENEVRWTKKLRIKFVF: the amyloid nucleation score was -0.228 ± 1.1. LESMFNVL showed an amyloid nucleation score of -0.44 ± 0.56. With LEVKARFP, the amyloid nucleation score is -0.471 ± 0.45.

Turning to LEYCDATLVVRDRQVSAVFL, the amyloid nucleation score was 0.584 ± 0.35.

LFARLLLHYVTS yielded an amyloid nucleation score of 9.204 ± 0.08. Substance LFCVDNVVKKGTVP returned an amyloid nucleation score of -0.365 ± 0.76. As to LFERLELFWYNEGHIMGFGL, the amyloid nucleation score came to 3.42 ± 0.049. Under LFFDTCRIPRSYWSCLEEES stands -0.206 ± 0.42; under LFFTFSKKFAR, 3.48 ± 0.068. For LFHFGNCSRIRGWGICVTSL, the amyloid nucleation score was -0.506 ± 0.55. Under LFISFAACGTF stands 2.09 ± 0.11. Under LFLFGSV stands 0.28 ± 0.62; under LFLLFFRFFQMGDLHYIIAI, -0.661 ± 1.1. In turn, LFLQGRNQLDTHWFCPACPM had an amyloid nucleation score of -0.727 ± 0.55.

For the substance LFNVMFRSLMVGWMYHENGL, the amyloid nucleation score worked out at 0.525 ± 0.44. Regarding LFSVLL, the amyloid nucleation score was -0.916 ± 1. LFVYIFVVKVDF came in with an amyloid nucleation score of 0.959 ± 0.27.

With LFYGNHWAPASWIWN, the amyloid nucleation score was 2.34 ± 0.15.

For LGCICMR, the amyloid nucleation score came out at 4.09 ± 0.071. For LGDCVSNHSCLSVEHFDLNY the value was 4.92 ± 0.11; for LGDERDADQIPSGIYG, 1.26 ± 0.27; for LGEIVHLTVDASIRSSDR, 5.13 ± 0.088. The substance LGFDFSNVKRTGRVTFFDCM came in with an amyloid nucleation score of -0.1 ± 0.35. In the case of LGKFEA, the amyloid nucleation score entry was “inactive”.

LGLPNNGL returned an amyloid nucleation score of -0.187 ± 0.55. Substance LGLRDELTVVVCWFRTYLIR gave an amyloid nucleation score of 4.634 ± 0.044.

As for LGSDMRLRMTYCPKRCVRWH, the amyloid nucleation score was 2.77 ± 0.14. Substance LGSWR displayed an amyloid nucleation score of -0.829 ± 1.1. On to LGYGWFNVLTYTTI, for which the amyloid nucleation score is -0.209 ± 0.65. Consider LGYIWLALRIVNCLDNGVPY, for which the amyloid nucleation score is -1 ± 0.44.

LHCYFFRLMCQSYDRDYKC yielded an amyloid nucleation score of -0.249 ± 1. For the substance LHFSICMPTGCDVPPGDKGG, the amyloid nucleation score entry is “inactive”. Take LHGGVLFKTSTMAGFR: the amyloid nucleation score was -0.501 ± 0.54. In turn, LHIDGNENRFLHRDGKRQEA yielded an amyloid nucleation score of 0.245 ± 0.39. With LHWFMVEDH, the amyloid nucleation score is 0.19 ± 0.42.

On to LHYTYVSDCVCRMDTLLFGL, for which the amyloid nucleation score was -0.278 ± 0.45.

Regarding LIAKMAIKFKGDAQF, the amyloid nucleation score was determined as 4.05 ± 0.09. On to LIFEEQENAGGMASIMSSMV, for which the amyloid nucleation score was found to be 0.463 ± 0.3. With LIFRAVWVVMSHHLTG, the amyloid nucleation score was 0.039 ± 0.42. In turn, LIFYIVNHECINGRYALVGY registered an amyloid nucleation score of 0.448 ± 0.62.

As for LIGCPLVDFTLYLCS, the amyloid nucleation score result was “inactive”. Regarding LIIDSGYPSGS, the amyloid nucleation score is 0.458 ± 0.8. Consider LIPVTGAMGSN, for which the amyloid nucleation score worked out at 0.183 ± 0.4.

Regarding LIQFDTISSLYP, the amyloid nucleation score was -0.271 ± 0.63. As for LITRGCCL, the amyloid nucleation score is -0.33 ± 0.76.

On to LITTSMYLWSVHSFVLHMDD, for which the amyloid nucleation score was 0.545 ± 0.4. For LIYPANDANNSTR the value was -0.616 ± 0.64; for LKATQLYGFYMTEKCVDSSW, -0.549 ± 1. For the substance LKDETN, the amyloid nucleation score entry was “inactive”. For LKNVLTCESVINQLR the value was -0.464 ± 0.39.

Consider LKTGSF, for which the amyloid nucleation score entry was “inactive”. As to LKTQWQSPWVQMV, the amyloid nucleation score was -0.09 ± 0.48. Turning to LKWVYLSSIALTFAPPRRLD, the amyloid nucleation score came to 3.63 ± 0.069. Take LLADAVMWFTMGSEDHDCY: the amyloid nucleation score is -0.531 ± 0.44.

Take LLASRWPRYLNSWRKSHVKV: the amyloid nucleation score was -0.133 ± 1.

LLCNWSPTLRHYFMRWDLGC gave an amyloid nucleation score of -0.901 ± 0.36. LLDACHLGNWTAGNGYYDRV returned an amyloid nucleation score of -0.531 ± 1.1. For the substance LLDINSCRFDMVISDMDNCP, the amyloid nucleation score entry was “inactive”.

In the case of LLDMYNYTGIF, the amyloid nucleation score result is “inactive”.

Regarding LLFLVCTSFNLDIQWNFALG, the amyloid nucleation score turned out to be 4.76 ± 0.087. Under LLFQVLPKMTSAPPSGWSTP stands 0.547 ± 0.81; under LLGSYI, “inactive”; under LLGTFYTS, -1 ± 1.1.

As to LLHYGGSFLAAKFRRMGFTM, the amyloid nucleation score is -0.262 ± 0.56. LLHYGGSFLAAKFRRMSCNE had an amyloid nucleation score of 0.811 ± 0.66. LLINLVPFWLILRHDYLIKF showed an amyloid nucleation score of 0.959 ± 0.74. Regarding LLKVF, the amyloid nucleation score is -1.01 ± 1.1.

Substance LLLASAMWYGKLIRMRLLG yielded an amyloid nucleation score of 0.659 ± 0.48. In turn, LLLHSIQIYDMRR had an amyloid nucleation score of 5.53 ± 0.089. Turning to LLLLMWALGLLENLTTLHGF, the amyloid nucleation score was -0.257 ± 0.47. With LLLNNLVYFSLRVYLLNFCL, the amyloid nucleation score was -2.07 ± 0.62. As to LLLTNVKW, the amyloid nucleation score result is “inactive”. Under LLMLVSFLIDDEAFSVFDLL stands 0.672 ± 0.39. As for LLRGRFGDSVSAVGFSGFCN, the amyloid nucleation score is -0.502 ± 0.45. For the substance LLSKFF, the amyloid nucleation score entry is “inactive”. For LLSRPTGQLVVPSQGLHFCY, the amyloid nucleation score is 0.242 ± 0.61. Substance LLSSLVFVVNFFAKGLRWLT displayed an amyloid nucleation score of -1.9 ± 0.62.

LLVKF gave an amyloid nucleation score of 0.641 ± 0.74. Under LLVRTYKLMMFHSLGIG stands -0.583 ± 1; under LLYIDLVVHVFQSGSSGRLL, 2.79 ± 0.083.

For the origin of these results see the supplement of paper PMC12042874.
